Assay results taken from patent publication US20190328837A1 (Stanford University, published 2019).

How the values were obtained:
[1] = target: T1, wild-type CNTFR-HIS (human, UniProt P26992 23-342); assay: flow cytometry, yeast-displayed CLCF1 construct, soluble CNTFR-HIS titrated, anti-HIS Hilyte Fluor 488 detection
T1 construct: also called wtCNTFR-HIS; HIS tagged CNTFR; not shown: HIS tag
T1 sequence: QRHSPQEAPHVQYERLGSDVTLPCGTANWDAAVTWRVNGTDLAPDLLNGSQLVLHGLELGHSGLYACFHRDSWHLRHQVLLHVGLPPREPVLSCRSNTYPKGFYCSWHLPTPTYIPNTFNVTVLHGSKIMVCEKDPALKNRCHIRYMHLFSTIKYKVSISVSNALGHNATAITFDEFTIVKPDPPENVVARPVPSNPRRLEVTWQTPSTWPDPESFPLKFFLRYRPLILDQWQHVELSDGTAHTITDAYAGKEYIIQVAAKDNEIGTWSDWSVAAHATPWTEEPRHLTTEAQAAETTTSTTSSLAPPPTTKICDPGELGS
Method: (§1) Using equilibrium binding conditions and screened by flow cytometric sorting (FACS), high throughput screening of the CLCF1 library using wtCNTFR-HIS was performed to enrich variants showing increased CLCF1 binding. Expression signal was used to normalize CNTFR binding to distinguish high expressers from high affinity binders. Screening stringency was increased throughout sorting by decreasing the concentration of wtCNTFR-HIS incubated with the library. […] Thus a variant containing the three mutations (named FRR-CLCF1) was chosen for further characterization (FIG. 7).
(§2) Yeast displaying CLCF1 constructs were incubated with varying concentrations of CNTFR for 12 h at room temperature to reach equilibrium binding. This was followed by washing with BPBS and resuspension in PBSA with 1:500 ratio of chicken anti-c-Myc (Invitrogen) for 30 min at 4 C. Yeast were then washed and pelleted, and secondary labeling was performed on ice for 30 min using PBSA with 1:100 dilution of goat anti-chicken PE (Santa Cruz) and mouse anti-HIS Hilyte Fluor 488 (Anaspec). Then samples were washed and analyzed by flow cytometry using Accuri (BD Biosciences). Samples were analyzed on BD Bioscience software, and data were analyzed using FlowJo software. Kd values were determined by fitting to a four-parameter sigmoidal curve. Error bars represent the standard deviation of triplicate experiments.

[2] = target: T1, wild-type CNTFR-HIS; assay: flow cytometry, yeast-displayed CLCF1 construct, soluble CNTFR-HIS titrated, apparent Kd from a four-parameter fit
Method: as §1, §2

[3] = target: T1, wild-type CNTFR-HIS; assay: yeast surface display, equilibrium titration with CNTFR-HIS, flow cytometry (apparent Kd)
Method: as §1, §2

[4] = target: T2, wild-type CNTFR-Fc (human, UniProt P26992 23-342); assay: cell-free ELISA, HIS-tagged soluble CLCF1 titrated against 2 nM CNTFR-Fc, anti-HIS capture, HRP anti-mouse detection
T2 construct: also called wtCNTFR-Fc; not shown: Fc domain; captured with anti-mouse Fc antibody
T2 sequence: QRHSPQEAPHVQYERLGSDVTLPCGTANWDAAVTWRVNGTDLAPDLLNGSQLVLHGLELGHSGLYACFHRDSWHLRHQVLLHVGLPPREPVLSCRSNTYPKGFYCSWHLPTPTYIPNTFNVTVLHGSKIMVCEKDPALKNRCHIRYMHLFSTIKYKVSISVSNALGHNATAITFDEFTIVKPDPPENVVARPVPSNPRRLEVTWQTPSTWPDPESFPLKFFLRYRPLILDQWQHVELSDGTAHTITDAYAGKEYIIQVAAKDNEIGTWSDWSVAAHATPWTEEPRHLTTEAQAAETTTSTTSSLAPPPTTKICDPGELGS
Method: 96-well plates were coated with 10 μg/mL of anti-HIS antibody overnight and blocked with 5% milk for 1 h. The plates were then washed twice with BPBS. Different concentrations of soluble constructs of HIS-tagged CLCF1 variants were incubated with 2 nM CNTFR-Fc in BPBS for 12 h at room temperature. The mixture was then added to 96-well plates coated with anti-HIS antibody for 1 h followed by washing with BPBS twice. Subsequently, the wells were incubated with 1:1000 diluted HRP conjugated anti-mouse antibody for 1 h at room temperature then washed four times with PBS. 1-Step Ultra TMB ELISA (Thermo Fisher Scientific) was used for the readout detected using a plate reader (Tecan).

[5] = target: T2, wild-type CNTFR-Fc; assay: sandwich ELISA, soluble CLCF1 titrated against 2 nM CNTFR-Fc, anti-mouse-Fc capture, anti-CLCF1 detection
Method: (§3) The CLCF1 variants isolated from screening were cloned into the pET28b bacterial expression plasmid and expressed and purified. […] A sandwich ELISA was performed using an anti-mouse Fc antibody as a capturing agent for wtCNTFR-Fc, followed by an anti-CLCF1 antibody as a detection agent for the bound complex. […] ELISA was also used to measure binding interactions with the gp130 and LIFR beta receptors.
(§4) To measure the solution-phase binding interaction between the CLCF1 constructs and CNTFR, different concentrations of soluble, recombinant CLCF1 variants and wtCLCF1 were incubated with 2 nM CNTFR-Fc in BPBS for 12 h at room temperature. The mixture was then added to 96-well plates coated with anti-mouse-Fc antibody for 1 h followed by washing with BPBS twice. Subsequently, the wells were incubated with 1:1000 diluted anti-CLCF1 rabbit antibody for 2 h at room temperature then washed four times with BPBS. The wells were incubated with a 1:1000 diluted HRP conjugated anti-rabbit antibody for 2 h at room temperature, and washed four times with BPBS. 1-Step Ultra TMB ELISA was used for the readout, which was measured using a plate reader (Tecan).

[6] = target: T1, wild-type CNTFR-HIS; assay: flow cytometry, yeast-displayed CLCF1 construct, soluble CNTFR titrated, apparent Kd
[7] = target: T2, wild-type CNTFR-Fc; assay: sandwich ELISA, soluble CLCF1 titrated against 2 nM CNTFR-Fc, apparent Kd
Method: as §3, §4

[8] = target: T1, wild-type CNTFR-HIS; assay: flow cytometry, yeast-displayed CLCF1 construct, soluble CNTFR titrated

B1: v2 (ligand)
CLCF1 variant displayed on yeast as Aga2p fusion with c-myc tag: LNRTGDPGPGPSIQKTYDLTRYLEHQLRSLAGTYLNYLGPPFNEPDFNPPRLGAETLPRATVDLEVWRSLNDKLRLTQNYEAYSHFLCYLRGLNRRAATAELRRSLAHFCTSLQGLLGSIAGVMAALGYPLPQPLPGTEPTWTPGPAHSDFLQKMDDFWLLKELQTWLWRSAKDFNRLKKKMQPPAAAVTLHLGAHGF
B1 was tested, and the “EC50 (read off the curve)” value [1] was about 4 nM and the Kd [2] was 3.1 nM.

B2: yeast-displayed CLCF1 variant H148R (ligand)
chain: LNRTGDPGPGPSIQKTYDLTRYLEHQLRSLAGTYLNYLGPPFNEPDFNPPRLGAETLPRATVDLEVWRSLNDKLRLTQNYEAYSHLLCYLRGLNRRAATAELRRSLAHFCTSLQGLLGSIAGVMAALGYPLPQPLPGTEPTWTPGPARSDFLQKMDDFWLLKELQTWLWRSAKDFNRLKKKMQPPAAAVTLHLGAHGF
B2 was tested, and the Kd [3] was 4.2 nM.

B3: recombinant soluble wild-type human CLCF1 (ligand)
chain: LNRTGDPGPGPSIQKTYDLTRYLEHQLRSLAGTYLNYLGPPFNEPDFNPPRLGAETLPRATVDLEVWRSLNDKLRLTQNYEAYSHLLCYLRGLNRQAATAELRRSLAHFCTSLQGLLGSIAGVMAALGYPLPQPLPGTEPTWTPGPAHSDFLQKMDDFWLLKELQTWLWRSAKDFNRLKKKMQPPAAAVTLHLGAHGF
notes: Expressed in E. coli from pET28b and purified from inclusion bodies by RP-HPLC; also called wtCLCF1; wild-type CLCF1
B3 was tested, and the “EC50 (read off the curve)” value [4] was about 80 nM and the “EC50 (read off the curve)” value [5] was about 80 nM.

B4: yeast-displayed CLCF1 variant L86F (ligand)
chain: LNRTGDPGPGPSIQKTYDLTRYLEHQLRSLAGTYLNYLGPPFNEPDFNPPRLGAETLPRATVDLEVWRSLNDKLRLTQNYEAYSHFLCYLRGLNRRAATAELRRSLAHFCTSLQGLLGSIAGVMAALGYPLPQPLPGTEPTWTPGPAHSDFLQKMDDFWLLKELQTWLWRSAKDFNRLKKKMQPPAAAVTLHLGAHGF
B4 showed a Kd [3] of 3.1 nM.

B5: v2 (ligand)
CLCF1 variant displayed on yeast as Aga2p fusion with c-myc tag: LNRTGDPGPGPSIQKTYDLTRYLEHQLRSLAGTYLNYLGPPFNEPDFNPPRLGAETLPRATVDLEVWRSLNDKLRLTQNYEAYSHFLCYLRGLNRRAATAELRRSLAHFCTSLQGLLGSIAGVMAALGYPLPQPLPGTEPTWTPGPARSDFLQKMDDFWLLKELQTWLLRSAKDFNRLKKKMQPPAAAVTLHLGAHGF
In the case of B5, the Kd [6] is reported as 0.22 nM.

B6: v1 (ligand)
soluble CLCF1 variant: LNRTGDPGPGPSIQKTYDLTRYLEHQLRSLAGTYLNYLGPPFNEPDFNPPRLGAETLPRATVDLEVWRSLNDKLRLTQNYEAYSHLLCYLRGLNRRAATAELRRSLAHFCTSLQGLLGSIAGVMAALGYPLPQPLPGTEPTWTPGPAHSDFLQKMDDFWLLKELQTWLWRSAKDFNRLKKKMQPPAAAVTLHLGAHGF
In the case of B6, the Kd [7] is reported as 6.6 nM and the “EC50 (read off the curve)” value [5] is reported as about 6 nM.

B7: v3 (ligand)
soluble CLCF1 variant: LNRTGDPGPGPSIQKTYDLTRYLEHQLRSLAGTYLNYLGPPFNEPDFNPPRLGAETLPRATVDLEVWRSLNDKLRLTQNYEAYSHLLCYLRGLNRRAATAELRRSLAHFCTSLQGLLGSIAGVMAALGYPLPQPLPGTEPTWTPGPARSDFLQKMDDFWLLKELQTWLWRSAKDFNRLKKKMQPPAAAVTLHLGAHGF
For B7, the Kd [7] was 2.5 nM and the “EC50 (read off the curve)” value [5] was about 2 nM.

B8: v2 (ligand)
soluble CLCF1 variant: LNRTGDPGPGPSIQKTYDLTRYLEHQLRSLAGTYLNYLGPPFNEPDFNPPRLGAETLPRATVDLEVWRSLNDKLRLTQNYEAYSHFLCYLRGLNRRAATAELRRSLAHFCTSLQGLLGSIAGVMAALGYPLPQPLPGTEPTWTPGPAHSDFLQKMDDFWLLKELQTWLWRSAKDFNRLKKKMQPPAAAVTLHLGAHGF
For B8, the Kd [7] was 2.3 nM and the “EC50 (read off the curve)” value [5] was about 2 nM.

B9: yeast-displayed FRR-CLCF1 (L86F, Q96R, H148R) (ligand, not shown: large carriers; small tags and cut ends)
chain: LNRTGDPGPGPSIQKTYDLTRYLEHQLRSLAGTYLNYLGPPFNEPDFNPPRLGAETLPRATVDLEVWRSLNDKLRLTQNYEAYSHFLCYLRGLNRRAATAELRRSLAHFCTSLQGLLGSIAGVMAALGYPLPQPLPGTEPTWTPGPARSDFLQKMDDFWLLKELQTWLWRSAKDFNRLKKKMQPPAAAVTLHLGAHGF
notes: also called the variant with all three mutations
B9 was tested, and the “EC50 (read off the curve)” value [8] was about 1 nM, the “EC50 (read off the curve)” value [1] was about 1 nM and the Kd [6] was 0.83 nM.

B10: v4 (ligand)
CLCF1 variant displayed on yeast as Aga2p fusion with c-myc tag: LNRTGDPGPGPSIQKTYDLTRYLEHQLRSLAGTYLNYLGPPFNEPDFNPPRLGAETLPRATVDLEVWRSLNDKLRLTQNYEAYSHFLCYLRGLNRRAATAELRRSLAHFCTSLQGLLGSIAGVMAALGYPLPQPLPGTEPTWTPGPARSDFLQKMDDFWLLKELQTWLLRSAKDFNRLKRKMQPPAAAVTLHLGAHGF
notes: The five consensus mutations without Y22C
With B10 the “EC50 (read off the curve)” value [8] was about 0.4 nM and the Kd [6] was 0.08 nM.

B11: yeast-displayed CLCF1 variant with Y22C, L86F, Q96R, H148R, W169L, K180R (ligand, not shown: large carriers; small tags and cut ends)
chain: LNRTGDPGPGPSIQKTYDLTRCLEHQLRSLAGTYLNYLGPPFNEPDFNPPRLGAETLPRATVDLEVWRSLNDKLRLTQNYEAYSHFLCYLRGLNRRAATAELRRSLAHFCTSLQGLLGSIAGVMAALGYPLPQPLPGTEPTWTPGPARSDFLQKMDDFWLLKELQTWLLRSAKDFNRLKRKMQPPAAAVTLHLGAHGF
notes: also called the resulting variant (five consensus mutations combined with Y22C)
In the case of B11, the “EC50 (read off the curve)” value [8] is reported as about 0.1 nM and the Kd [6] is reported as 0.06 nM.

B12: yeast-displayed CLCF1 variant Q96R (ligand, not shown: large carriers; small tags and cut ends)
chain: LNRTGDPGPGPSIQKTYDLTRYLEHQLRSLAGTYLNYLGPPFNEPDFNPPRLGAETLPRATVDLEVWRSLNDKLRLTQNYEAYSHLLCYLRGLNRRAATAELRRSLAHFCTSLQGLLGSIAGVMAALGYPLPQPLPGTEPTWTPGPAHSDFLQKMDDFWLLKELQTWLWRSAKDFNRLKKKMQPPAAAVTLHLGAHGF
For B12, the “EC50 (read off the curve)” value [1] was about 6 nM and the Kd [3] was 7.9 nM.

B13: v3 (ligand)
CLCF1 variant displayed on yeast as Aga2p fusion with c-myc tag: LNRTGDPGPGPSIQKTYDLTRYLEHQLRSLAGTYLNYLGPPFNEPDFNPPRLGAETLPRATVDLEVWRSLNDKLRLTQNYEAYSHFLCYLRGLNRRAATAELRRSLAHFCTSLQGLLGSIAGVMAALGYPLPQPLPGTEPTWTPGPARSDFLQKMDDFWLLKELQTWLWRSAKDFNRLKRKMQPPAAAVTLHLGAHGF
In the case of B13, the Kd [6] is reported as 0.28 nM.

B14: v5 (ligand)
CLCF1 variant displayed on yeast as Aga2p fusion with c-myc tag: LNRTGDPGPGPSIQKTYDLTRCLEHQLRSLAGTYLNYLGPPFNEPDFNPPRLGAETLPRATVDLEVWRSLNDKLRLTQNYEAYSHFLCYLRGLNRRAATAELRRSLAHFCTSLQGLLGSIAGVMAALGYPLPQPLPGTEPTWTPGPARSDFLQKMDDFWLLKELQTWLWRSAKDFNRLKKKMQPPAAAVTLHLGAHGF
Work on B14 yielded a Kd [6] of 0.18 nM.
